Measured values: patent US20240116985A1 (published 2024)
Starred links: 1 amine or outer side, 2 acyl side, 3 side chain; linkers in the order of their positions; H or OH if unused. Positions of bridges follow the written chain, without caps; N, C: chain ends. Non-standard residues stand in square brackets, D forms with d. Primed or numbered codes have the meaning given here. PyrS2″ = (S)-3-amino-1-((pent-4-en-1-yloxy)carbonyl)pyrrolidine-3-carboxylic acid (stapling residue), C=CCCCOC(=O)N1CC[C@@](N[*:1])(C(=O)[*:2])C1; B5(16) = 2-amino-2-(pent-4-en-1-yl)hept-6-enoic acid = 2,2-bis(4-pentenyl)glycine (stitching residue), C=CCCCC(CCCC=C)(N[*:1])C(=O)[*:2]; PyrS2 = (S)-3-amino-1-((pent-4-en-1-yloxy)carbonyl)pyrrolidine-3-carboxylic acid, C=CCCCOC(=O)N1CC[C@@](N[*:1])(C(=O)[*:2])C1; B5(9) = 2-amino-2-(pent-4-en-1-yl)hept-6-enoic acid (2,2-bis(4-pentenyl)glycine), C=CCCCC(CCCC=C)(N[*:1])C(=O)[*:2]; B5(3) = 2,2-bis(4-pentenyl)glycine (stitching residue), C=CCCCC(CCCC=C)(N[*:1])C(=O)[*:2]; B5 = 2-amino-2-(pent-4-en-1-yl)hept-6-enoic acid, C=CCCCC(CCCC=C)(N[*:1])C(=O)[*:2]; Bta = N[C@@H](Cc1csc2ccccc12)C(=O)O; αAllylPro = C=CC[C@@]1(C(=O)O)CCCN1; tBuAla = CC(C)(C)C[C@H](N)C(=O)O; 3Thi = N[C@@H](Cc1ccsc1)C(=O)O; S8 = C=CCCCCCC[C@](C)(N)C(=O)O; hSer = N[C@@H](CCO)C(=O)O

These binders were tested against T1, full-length beta-Catenin (Uniprot ID P35222) (Homo sapiens (Human), UniProt P35222 1-781) (assay: fluorescence polarization competition; peptide titrated against 10 nM full-length beta-catenin + 10 nM 5FAM-TCF4(10-53) probe).
T1 construct: Said to be full-length in the fluorescence polarization assay; also called bCat; B-Catenin
T1 sequence: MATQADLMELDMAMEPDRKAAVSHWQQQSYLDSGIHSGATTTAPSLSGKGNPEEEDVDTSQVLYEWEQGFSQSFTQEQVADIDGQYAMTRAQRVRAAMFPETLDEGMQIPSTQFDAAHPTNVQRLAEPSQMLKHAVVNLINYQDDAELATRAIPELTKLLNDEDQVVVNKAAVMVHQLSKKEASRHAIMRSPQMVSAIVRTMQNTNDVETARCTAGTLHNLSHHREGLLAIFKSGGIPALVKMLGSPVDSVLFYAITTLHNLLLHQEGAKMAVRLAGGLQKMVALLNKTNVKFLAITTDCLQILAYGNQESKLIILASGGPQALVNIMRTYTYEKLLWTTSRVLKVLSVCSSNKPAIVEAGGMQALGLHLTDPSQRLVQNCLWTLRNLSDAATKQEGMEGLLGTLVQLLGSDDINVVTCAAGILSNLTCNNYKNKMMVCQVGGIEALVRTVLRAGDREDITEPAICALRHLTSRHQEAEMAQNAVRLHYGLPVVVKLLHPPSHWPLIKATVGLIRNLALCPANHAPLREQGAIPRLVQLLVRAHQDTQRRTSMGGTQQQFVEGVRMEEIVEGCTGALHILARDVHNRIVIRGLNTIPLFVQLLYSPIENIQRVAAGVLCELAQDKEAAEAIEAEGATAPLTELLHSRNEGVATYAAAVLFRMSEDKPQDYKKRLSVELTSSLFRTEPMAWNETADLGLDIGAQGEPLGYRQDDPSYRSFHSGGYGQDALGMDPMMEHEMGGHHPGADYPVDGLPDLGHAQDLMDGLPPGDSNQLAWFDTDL
Experimental: The plate was incubated protected from light for 60 minutes at 20° C. prior to read. Reads were performed on a CLARIOstar plate reader (BMG Labtech) in duplicate, and data were fitted to a 1:1 binding model with hill slope using an in-house script. All provided concentrations are final concentrations.

Binder | EC50 [nM]
XDIXDRAAFQXFXQ (not fully specified; Ac-PL3-Asp-Ile-B5-Asp-Arg-Ala-Ala-Phe-Gln-S8-Phe-BztA-Gln-NH2; N-terminal acetyl, C-terminal amide; non-natural PL3 (1), B5 (4), S8 (11), BztA (13); staples PL3-B5 and B5-S8 by olefin metathesis, Stapled peptide; Earlier-eluting staple isomer composition) [I-613] | 1630
XDLXDEAAFTXFXH (not fully specified; Ac-PL3-Asp-Leu-B5-Asp-Glu-Ala-Ala-Phe-Thr-S8-Phe-BztA-His-NH2; N-terminal acetyl, C-terminal amide; non-natural PL3 (1), B5 (4), S8 (11), BztA (13); staples PL3-B5 and B5-S8 by olefin metathesis, Stapled peptide; Earlier-eluting staple isomer composition) [I-617] | 253
XDLXDEAAFTXFXQ (not fully specified; Ac-PL3-Asp-Leu-B5-Asp-Glu-Ala-Ala-Phe-Thr-S8-Phe-BztA-Gln-NH2; N-terminal acetyl, C-terminal amide; non-natural PL3 (1), B5 (4), S8 (11), BztA (13); staples PL3-B5 and B5-S8 by olefin metathesis, Stapled peptide; Later-eluting staple isomer composition) [I-623] | 103
XDLXDEAAFTXFXQ (not fully specified; Ac-PL3-Asp-Leu-B5-Asp-Glu-Ala-Ala-Phe-Thr-S8-Phe-BztA-Gln-NH2; N-terminal acetyl, C-terminal amide; non-natural PL3 (1), B5 (4), S8 (11), BztA (13); staples PL3-B5 and B5-S8 by olefin metathesis, Stapled peptide; Earlier-eluting staple isomer composition) [I-622] | 230
XDIXDEAAFQXFXP (not fully specified; Ac-PL3-Asp-Ile-B5-Asp-Glu-Ala-Ala-Phe-Gln-S8-Phe-BztA-Pro-NH2; N-terminal acetyl, C-terminal amide; non-natural PL3 (1), B5 (4), S8 (11), BztA (13); staples PL3-B5 and B5-S8 by olefin metathesis, Stapled peptide; Earlier-eluting staple isomer composition) [I-637] | 5000
Ac-[αAllylPro]DI[B5(16)]DEAAFQ[S8]F[Bta]L-NH2 (staple 1-4, 4-11, Stapled peptide) [I-634] | 425
Ac-[αAllylPro]DI[B5(9)]DEAAFQ[S8]F[Bta]W-NH2 (staple 1-4, 4-11, Stapled peptide; Later-eluting staple isomer composition) [I-644] | 808
XDIXDEAAFQXFXS (not fully specified; Ac-PL3-Asp-Ile-B5-Asp-Glu-Ala-Ala-Phe-Gln-S8-Phe-BztA-Ser-NH2; N-terminal acetyl, C-terminal amide; non-natural PL3 (1), B5 (4), S8 (11), BztA (13); staples PL3-B5 and B5-S8 by olefin metathesis, Stapled peptide; Earlier-eluting staple isomer composition) [I-639] | 109
Ac-[αAllylPro]DI[B5(16)]DEAAFQ[S8]F[Bta]Y-NH2 (staple 1-4, 4-11, Stapled peptide) [I-636] | 198
Ac-[αAllylPro]DI[B5(16)]DEAAFQ[S8]F[Bta]F-NH2 (staple 1-4, 4-11, Stapled peptide) [I-635] | 171
XDIXDEAAFQXFXS (not fully specified; Ac-PL3-Asp-Ile-B5-Asp-Glu-Ala-Ala-Phe-Gln-S8-Phe-BztA-Ser-NH2; N-terminal acetyl, C-terminal amide; non-natural PL3 (1), B5 (4), S8 (11), BztA (13); staples PL3-B5 and B5-S8 by olefin metathesis, Stapled peptide; Later-eluting staple isomer composition) [I-640] | 87
XDIXDEAAFQXFXT (not fully specified; Ac-PL3-Asp-Ile-B5-Asp-Glu-Ala-Ala-Phe-Gln-S8-Phe-BztA-Thr-NH2; N-terminal acetyl, C-terminal amide; non-natural PL3 (1), B5 (4), S8 (11), BztA (13); staples PL3-B5 and B5-S8 by olefin metathesis, Stapled peptide; Earlier-eluting staple isomer composition) [I-641] | 122
Ac-[αAllylPro]DI[B5(16)]DEAAFQ[S8]F[Bta]R-NH2 (staple 1-4, 4-11, Stapled peptide) [I-633] | 88
Ac-[αAllylPro]DI[B5(9)]DEAAFQ[S8]F[Bta]W-NH2 (staple 1-4, 4-11, Stapled peptide; Earlier-eluting staple isomer composition) [I-643] | 958
XDIXDEAAFQXFXT (not fully specified; Ac-PL3-Asp-Ile-B5-Asp-Glu-Ala-Ala-Phe-Gln-S8-Phe-BztA-Thr-NH2; N-terminal acetyl, C-terminal amide; non-natural PL3 (1), B5 (4), S8 (11), BztA (13); staples PL3-B5 and B5-S8 by olefin metathesis, Stapled peptide; Later-eluting staple isomer composition) [I-642] | 118
XDIXDRAAFQXFXQ (not fully specified; Ac-PL3-Asp-Ile-B5-Asp-Arg-Ala-Ala-Phe-Gln-S8-Phe-BztA-Gln-NH2; N-terminal acetyl, C-terminal amide; non-natural PL3 (1), B5 (4), S8 (11), BztA (13); staples PL3-B5 and B5-S8 by olefin metathesis, Stapled peptide; Later-eluting staple isomer composition) [I-614] | 1140
XDIXDEAAFQXFXP (not fully specified; Ac-PL3-Asp-Ile-B5-Asp-Glu-Ala-Ala-Phe-Gln-S8-Phe-BztA-Pro-NH2; N-terminal acetyl, C-terminal amide; non-natural PL3 (1), B5 (4), S8 (11), BztA (13); staples PL3-B5 and B5-S8 by olefin metathesis, Stapled peptide; Later-eluting staple isomer composition) [I-638] | 3880
XDLXDEAAFTXFXH (not fully specified; Ac-PL3-Asp-Leu-B5-Asp-Glu-Ala-Ala-Phe-Thr-S8-Phe-BztA-His-NH2; N-terminal acetyl, C-terminal amide; non-natural PL3 (1), B5 (4), S8 (11), BztA (13); staples PL3-B5 and B5-S8 by olefin metathesis, Stapled peptide; Later-eluting staple isomer composition) [I-618] | 135

The binders below were run against T2, B-cat-Halo (beta-catenin HaloTag construct expressed in HEK293 cells) (UniProt P35222 1-781) (assay: cell-based or functional assay).
T2 sequence (looked up): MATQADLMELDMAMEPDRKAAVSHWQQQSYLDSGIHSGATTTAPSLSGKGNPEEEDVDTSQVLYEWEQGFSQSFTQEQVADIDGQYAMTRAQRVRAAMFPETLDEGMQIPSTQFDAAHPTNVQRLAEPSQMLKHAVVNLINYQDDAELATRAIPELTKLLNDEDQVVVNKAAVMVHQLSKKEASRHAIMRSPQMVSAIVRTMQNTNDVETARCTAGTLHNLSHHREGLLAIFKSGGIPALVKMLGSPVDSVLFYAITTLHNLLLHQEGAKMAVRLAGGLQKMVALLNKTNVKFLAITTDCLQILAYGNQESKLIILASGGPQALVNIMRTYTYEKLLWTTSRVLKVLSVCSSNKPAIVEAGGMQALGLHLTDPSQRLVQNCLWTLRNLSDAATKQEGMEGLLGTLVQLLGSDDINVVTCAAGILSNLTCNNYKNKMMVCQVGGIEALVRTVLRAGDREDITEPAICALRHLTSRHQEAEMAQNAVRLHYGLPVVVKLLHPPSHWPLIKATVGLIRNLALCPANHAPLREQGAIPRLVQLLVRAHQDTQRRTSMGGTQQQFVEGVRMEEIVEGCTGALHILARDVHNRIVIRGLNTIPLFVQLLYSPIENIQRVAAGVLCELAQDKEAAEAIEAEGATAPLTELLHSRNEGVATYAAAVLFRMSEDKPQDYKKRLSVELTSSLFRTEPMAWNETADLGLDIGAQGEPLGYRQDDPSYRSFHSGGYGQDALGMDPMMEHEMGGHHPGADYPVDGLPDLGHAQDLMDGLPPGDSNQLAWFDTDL

Binder | NanoBRET Abs IC50 [µM]
Ac-[αAllylPro]D[tBuAla][B5(3)]DDAAF[hSer][PyrS2″][3Thi][Bta]H-NH2 (staple 1-4, 4-11) [I-804] | 13.5
Ac-[αAllylPro]D[tBuAla][B5]DDAAFL[PyrS2][3Thi][Bta]H-NH2 (staple 1-4, 4-11) [I-802] | 4.8
